Data taken from IntAct's records for PubMed 16488394.

B1: Actin nucleation-promoting factor WAS (Homo sapiens), P42768 (parent)
chain: MSGGPMGGRPGGRGAPAVQQNIPSTLLQDHENQRLFEMLGRKCLTLATAVVQLYLALPPGAEHWTKEHCGAVCFVKDNPQKSYFIRLYGLQAGRLLWEQELYSQLVYSTPTPFFHTFAGDDCQAGLNFADEDEAQAFRALVQEKIQKRNQRQSGDRRQLPPPPTPANEERRGGLPPLPLHPGGDQGGPPVGPLSLGLATVDIQNPDITSSRYRGLPAPGPSPADKKRSGKKKISKADIGAPSGFKHVSHVGWDPQNGFDVNNLDPDLRSLFSRAGISEAQLTDAETSKLIYDFIEDQGGLEAVRQEMRRQEPLPPPPPPSRGGNQLPRPPIVGGNKGRSGPLPPVPLGIAPPPPTPRGPPPPGRGGPPPPPPPATGRSGPLPPPPPGAGGPPMPPPPPPPPPPPSSGNGPAPPPLPPALVPAGGLAPGGGRGALLDQIRQGIQLNKTPGAPESSALQPPPQSSEGLVGALMHVMQKRSRAIHSSDEGEDQAGDEDEDDEWDD

Variants of: B1
Settings: with wipf1_human WIPF1, O43516
wipf1_human WIPF1, O43516, sequence (O43516 whole entry): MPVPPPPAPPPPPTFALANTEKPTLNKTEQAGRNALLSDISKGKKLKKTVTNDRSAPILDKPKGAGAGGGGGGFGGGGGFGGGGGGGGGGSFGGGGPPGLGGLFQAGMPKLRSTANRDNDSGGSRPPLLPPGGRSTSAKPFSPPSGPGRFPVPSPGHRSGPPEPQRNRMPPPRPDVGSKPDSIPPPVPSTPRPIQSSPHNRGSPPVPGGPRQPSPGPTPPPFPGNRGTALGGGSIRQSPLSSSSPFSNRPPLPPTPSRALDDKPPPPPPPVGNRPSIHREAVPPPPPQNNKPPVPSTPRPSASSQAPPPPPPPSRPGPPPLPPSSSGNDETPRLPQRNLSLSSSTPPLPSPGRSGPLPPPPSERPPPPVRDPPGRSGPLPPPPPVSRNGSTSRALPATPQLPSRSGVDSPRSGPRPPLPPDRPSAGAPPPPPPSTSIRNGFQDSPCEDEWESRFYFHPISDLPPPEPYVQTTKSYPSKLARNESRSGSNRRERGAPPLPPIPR

effect of a mutation on the interaction | Variant
decreasing interaction | A134T
